What was measured:
[1] = molecular target: T1, Amino acid residues 114-133 of human TNFR2 (human); assay: ELISA on TNFR2 peptide fragment; categorical score, 0 lowest to 4 highest affinity
T1 peptide: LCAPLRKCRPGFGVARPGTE

[2] = molecular target: T2, Amino acid residues 122-141 of human TNFR2 (human); assay: as above
T2 peptide: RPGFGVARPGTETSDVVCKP

[3] = molecular target: T3, Amino acid residues 42-61 of human TNFR2 (human); assay: as above
T3 peptide: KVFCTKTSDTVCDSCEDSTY

[4] = molecular target: T4, Amino acid residues 66-85 of human TNFR2 (human); assay: as above
T4 peptide: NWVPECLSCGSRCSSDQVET

[5] = molecular target: T5, Amino acid residues 162-181 of human TNFR2 (human); assay: as above
T5 peptide: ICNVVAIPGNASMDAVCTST

[6] = molecular target: T6, Amino acid residues 90-109 of human TNFR2 (human); assay: as above
T6 peptide: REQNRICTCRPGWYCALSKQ

[7] = molecular target: T7, Amino acid residues 130-149 of human TNFR2 (human); assay: as above
T7 peptide: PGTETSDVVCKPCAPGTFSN

[8] = molecular target: T8, Amino acid residues 82-101 of human TNFR2 (human); assay: as above
T8 peptide: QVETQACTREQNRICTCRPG

[9] = molecular target: T9, Amino acid residues 170-189 of human TNFR2 (human); assay: as above
T9 peptide: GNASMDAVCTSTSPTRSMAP

[10] = molecular target: T10, Amino acid residues 1-20 of human TNFR2 (human); assay: as above
T10 construct: 20-mer fragment
T10 peptide: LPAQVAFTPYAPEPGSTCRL

[11] = molecular target: T11, Amino acid residues 58-77 of human TNFR2 (human); assay: as above
T11 peptide: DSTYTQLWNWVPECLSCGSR

[12] = molecular target: T12, Amino acid residues 146-165 of human TNFR2 (human); assay: as above
T12 peptide: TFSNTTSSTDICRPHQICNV

[13] = molecular target: T13, Amino acid residues 9-28 of human TNFR2 (human); assay: as above
T13 peptide: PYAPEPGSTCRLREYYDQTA

[14] = molecular target: T14, Amino acid residues 154-174 of human TNFR2 (human); assay: as above
T14 peptide: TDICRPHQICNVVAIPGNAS

[15] = molecular target: T15, Amino acid residues 17-36 of human TNFR2 (human); assay: as above
T15 peptide: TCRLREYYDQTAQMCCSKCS

[16] = molecular target: T16, Amino acid residues 50-69 of human TNFR2 (human); assay: as above
T16 peptide: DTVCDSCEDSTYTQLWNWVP

[17] = molecular target: T17, Amino acid residues 138-157 of human TNFR2 (human); assay: as above
T17 peptide: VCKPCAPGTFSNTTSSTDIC

[18] = molecular target: T18, Amino acid residues 74-93 of human TNFR2 (human); assay: as above
T18 peptide: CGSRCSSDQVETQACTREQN

[19] = molecular target: T1, Amino acid residues 114-133 of human …; assay: ELISA, coated linear peptides 1 µg/well
Method: (§1) ELISA was also used to determine linear epitopes present on the extracellular surface of TNFR2. Linear peptides corresponding to various regions within the TNFR2 primary sequence were purchased from GenScript (Piscataway, N.J.), diluted in coating buffer and placed on Immulon 4HBX Flat Bottom Microtiter Plates (Thermo Scientific) at a concentration of 1 μg/well. Primary TNFR2 agonistic antibodies (0.1 μg/well) were incubated with substrates. Secondary antibodies against rodent IgG were used to detect the primary antibodies. Absorbance was measured using the SPECTRAMAX® 190 Absorbance Plate Reader and analyzed with SoftMax Pro 6.3 (Molecular Devices).

[20] = molecular target: T2, Amino acid residues 122-141 of human …; assay: ELISA, coated linear peptides 1 µg/well
Method: as §1

[21] = molecular target: T5, Amino acid residues 162-181 of human …; assay: ELISA, coated linear peptides 1 µg/well
Method: as §1

[22] = molecular target: T7, Amino acid residues 130-149 of human …; assay: ELISA, coated linear peptides 1 µg/well
Method: as §1

[23] = molecular target: T8, Amino acid residues 82-101 of human …; assay: ELISA, coated linear peptides 1 µg/well
Method: as §1

[24] = molecular target: T10, Amino acid residues 1-20 of human TNFR2; assay: ELISA, coated linear peptides 1 µg/well
Method: as §1

[25] = molecular target: T12, Amino acid residues 146-165 of human …; assay: ELISA, coated linear peptides 1 µg/well
Method: as §1

[26] = molecular target: T17, Amino acid residues 138-157 of human …; assay: ELISA, coated linear peptides 1 µg/well
Method: as §1

B1: agonistic TNFR2 antibody TNFRAG1 (antibody, V domains shown)
VH: EVQLQQFGAELVKPGASVKISCKASGYTFTDYNIDWVKQSHGKSLEWIGDINPNYDSTSYSQKFRGKATLTVDKSSSTAYMELRSLTSEDTAVYYCARGNSWYFDVWGAGTTVTVSS
VL: QIVLTQSPALMSASPGEKVTMTCSASSSVRYMYWYQQKPRSSPKPWIYLTSNLASGVPARFSGSGSGTSYSLTISSMEAEDAATYYCQQWSSNPLTFGAGTKLELK
notes: the primary antibodies were detected with secondary antibodies against rodent IgG; also called monoclonal TNFR2 antibody TNFRAG1; TNFR2 agonist antibody
For B1, the “Affinity Score” value [1] was 0, the “Affinity Score” value [2] was 0 and the “Affinity Score” value [3] was 0. For the same binder, the “Affinity Score” value [4] was 0, the “Affinity Score” value [5] was 0 and the “Affinity Score” value [6] was 2. For the same binder, the “Affinity Score” value [7] was 0, the “Affinity Score” value [8] was 0 and the “Affinity Score” value [9] was 0. For the same binder, the “Affinity Score” value [10] was 0, the “Affinity Score” value [11] was 0 and the “Affinity Score” value [12] was 0. For the same binder, the “Affinity Score” value [13] was 0, the “Affinity Score” value [14] was 0 and the “Affinity Score” value [15] was 0. The “Affinity Score” value [16] was 0, the “Affinity Score” value [17] was 0 and the “Affinity Score” value [18] was 0. B1: no binding (tested: 0.1 µg/well) [19]; no binding (tested: 0.1 µg/well) [20]; no binding (tested: 0.1 µg/well) [21]. B1: no binding (tested: 0.1 µg/well) [22]; no binding (tested: 0.1 µg/well) [23]; no binding (tested: 0.1 µg/well) [24]. B1: no binding (tested: 0.1 µg/well) [25]; no binding (tested: 0.1 µg/well) [26].

— patent US20220002423A1 (GENERAL HOSPITAL, published 2022)
